Measurements: patent US20170122944A1
Each block holds one substance with its values, some of them ahead of it.

Legend:
[1] = target: Factor D in C1q-depleted human serum (human) (UniProt P00746); experiment: cell-based or functional assay
[2] = target: recombinant human Factor D (human) (UniProt P00746); experiment: cell-based or functional assay

TR-FRET Activity (Thermal control) [2]: 103%
TR-FRET Activity (Unstressed control) [2]: 93%
Substance: Lampalizumab (Fab)
Hemolytic Mean (rabbit erythrocyte lysis assay; Thermal control) [1]: 96
Hemolytic Mean (rabbit erythrocyte lysis assay; Unstressed control) [1]: 81

TR-FRET Activity (Oxidized, 30 mM AAPH) [2]: 63%
Substance: Lampalizumab subjected to oxidation conditions (30 mM AAPH) (Fab)
Hemolytic Mean (rabbit erythrocyte lysis assay; Oxidized, 30 mM AAPH) [1]: 82

TR-FRET Activity (Thermal Stress) [2]: 86%
Substance: Lampalizumab subjected to thermal stress (Fab)
Hemolytic Mean (rabbit erythrocyte lysis assay; Thermal Stress) [1]: 102
